Tests used:
[1] = biological target: human MUC1 (human) (UniProt P15941); assay: co-immunoprecipitation with anti-HSP70, anti-MUC1 immunoblot, densitometry; lane 4 (taken to be MC38/MUC1 tumor cells)
[2] = biological target: human MUC1 (human) (UniProt P15941); assay: co-immunoprecipitation with anti-HSP70, anti-MUC1 immunoblot, densitometry; lane 6 (taken to be FC/MUC1 fusion cells)

UniProt P15941, sequence (P15941 24-1255 limits assumed): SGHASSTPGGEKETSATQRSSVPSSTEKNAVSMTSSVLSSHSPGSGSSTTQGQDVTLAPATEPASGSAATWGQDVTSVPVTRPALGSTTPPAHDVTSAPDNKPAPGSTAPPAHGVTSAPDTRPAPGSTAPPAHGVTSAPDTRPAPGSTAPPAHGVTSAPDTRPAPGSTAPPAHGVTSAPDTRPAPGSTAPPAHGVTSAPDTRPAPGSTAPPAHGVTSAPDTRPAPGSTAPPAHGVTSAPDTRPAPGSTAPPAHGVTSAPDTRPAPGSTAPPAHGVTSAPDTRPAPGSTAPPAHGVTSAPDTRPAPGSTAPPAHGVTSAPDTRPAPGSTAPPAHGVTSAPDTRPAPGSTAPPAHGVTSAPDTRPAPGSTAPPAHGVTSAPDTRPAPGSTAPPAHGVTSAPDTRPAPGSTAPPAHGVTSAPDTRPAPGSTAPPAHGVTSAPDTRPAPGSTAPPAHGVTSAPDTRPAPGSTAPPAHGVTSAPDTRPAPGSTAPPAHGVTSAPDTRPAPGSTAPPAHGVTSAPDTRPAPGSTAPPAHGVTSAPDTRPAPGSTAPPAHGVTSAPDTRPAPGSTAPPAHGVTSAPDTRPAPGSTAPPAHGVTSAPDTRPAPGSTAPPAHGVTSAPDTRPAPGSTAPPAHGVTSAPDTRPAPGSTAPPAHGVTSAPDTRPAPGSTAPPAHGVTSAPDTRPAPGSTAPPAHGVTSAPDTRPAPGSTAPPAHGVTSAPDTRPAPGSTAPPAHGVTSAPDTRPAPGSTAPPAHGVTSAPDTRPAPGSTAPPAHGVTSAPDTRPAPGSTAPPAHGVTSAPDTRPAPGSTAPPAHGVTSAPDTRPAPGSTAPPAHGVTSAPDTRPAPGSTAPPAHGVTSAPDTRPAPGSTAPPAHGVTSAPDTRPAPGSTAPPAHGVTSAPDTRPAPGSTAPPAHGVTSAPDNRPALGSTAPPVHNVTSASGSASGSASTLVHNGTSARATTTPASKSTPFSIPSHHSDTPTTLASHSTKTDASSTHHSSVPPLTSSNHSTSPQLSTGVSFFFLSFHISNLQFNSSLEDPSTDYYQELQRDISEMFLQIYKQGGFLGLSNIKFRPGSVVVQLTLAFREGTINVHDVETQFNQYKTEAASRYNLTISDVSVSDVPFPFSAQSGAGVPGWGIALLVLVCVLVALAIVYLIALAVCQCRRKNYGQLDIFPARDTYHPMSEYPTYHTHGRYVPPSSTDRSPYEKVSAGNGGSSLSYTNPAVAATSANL
HSP70 (endogenous, immunoprecipitated with anti-HSP70 antibody Ab46 or purified by ADP-agarose from MC38/MUC1 tumor cells or FC/MUC1 DC-tumor fusion cells), sequence (Q61696 2-641): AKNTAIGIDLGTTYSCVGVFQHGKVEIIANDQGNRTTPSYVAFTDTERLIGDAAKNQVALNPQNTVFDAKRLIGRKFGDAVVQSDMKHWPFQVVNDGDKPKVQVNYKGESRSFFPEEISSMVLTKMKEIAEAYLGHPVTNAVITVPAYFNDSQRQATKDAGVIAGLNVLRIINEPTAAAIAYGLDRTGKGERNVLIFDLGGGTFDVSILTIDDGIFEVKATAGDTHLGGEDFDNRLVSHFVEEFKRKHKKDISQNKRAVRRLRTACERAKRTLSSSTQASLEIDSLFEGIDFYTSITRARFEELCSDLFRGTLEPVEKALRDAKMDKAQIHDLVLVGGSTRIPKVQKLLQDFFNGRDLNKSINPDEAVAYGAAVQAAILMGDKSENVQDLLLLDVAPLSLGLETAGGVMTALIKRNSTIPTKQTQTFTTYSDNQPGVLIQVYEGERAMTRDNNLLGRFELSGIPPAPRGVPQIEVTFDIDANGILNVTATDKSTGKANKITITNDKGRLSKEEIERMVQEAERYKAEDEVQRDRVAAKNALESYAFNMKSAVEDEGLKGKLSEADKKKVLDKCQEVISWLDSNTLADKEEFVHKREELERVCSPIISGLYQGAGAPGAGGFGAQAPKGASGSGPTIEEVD

relative density of MUC1 (lane 4) [1]: 10.7%
relative density of MUC1 (lane 6) [2]: 41.5%
Substance: HSP70 (endogenous, immunoprecipitated with anti-HSP70 antibody Ab46 or purified by ADP-agarose from MC38/MUC1 tumor cells or FC/MUC1 DC-tumor fusion cells)
